{
  "source": "paper PMC9457990",
  "about": "“Evolution of Interferon-Gamma Aptamer with Good Affinity and Analytical Utility by a Rational In Silico Base Mutagenesis Post-SELEX Strategy”",
  "binders": {"B1": {"name": "B1-4 (ssDNA)", "DNA": "CCGCCCAAATCCCTAAGAGAAGACTGTAATGACATCAAACCAGACACACTACACACGCA"}, "B2": {"name": "M2-6 (ssDNA)", "DNA": "B1 DNA with A18G, C49T"}, "B3": {"name": "M4-10 (ssDNA)", "DNA": "B1 DNA with A18T, T27G, A29T, A44T"}, "B4": {"name": "M1-8 (ssDNA)", "DNA": "B1 DNA with A18G"}, "B5": {"name": "M3-6 (ssDNA)", "DNA": "B1 DNA with A18T, T27G, A44T"}, "B6": {"name": "M5-5 (ssDNA)", "DNA": "B1 DNA with T14G, A18G, C24G, A34G, C49T"}},
  "note": "Numbering of substitutions follows the chain as printed.",
  "data": [
    {"target": "interferon-gamma (IFN-γ) (Homo sapiens, UniProt P01579 24-161)", "sequence (P01579 24-161)": "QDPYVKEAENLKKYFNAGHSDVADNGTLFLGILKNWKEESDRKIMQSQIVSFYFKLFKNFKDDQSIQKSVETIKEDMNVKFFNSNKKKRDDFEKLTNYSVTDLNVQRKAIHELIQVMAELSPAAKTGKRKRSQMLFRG", "experiment": "BLI; PBS pH 7.4, 25 °C; BLI on SA sensors with 500 nM biotinylated aptamer loaded, IFN-γ 125-2000 nM; fluorescence assay in PBS, 250 nM M5-5, MB 1:3, 30 min at 25 °C", "details": "protein: commercial; chain copies: 2; label: biotin (BLI)", "units": {"Kd": "nM"}, "values": [
      {"binder": "B1", "Kd": 914},
      {"binder": "B2", "Kd": 482},
      {"binder": "B3", "Kd": 277},
      {"binder": "B4", "Kd": 440},
      {"binder": "B5", "Kd": 267},
      {"binder": "B6", "Kd": 106}
    ]}
  ]
}
